Data: patent US11285284B2, “Methods for treatment of pulmonary lung diseases with improved therapeutic efficacy and improved dose efficiency” (PNEUMA RESPIRATORY, INC., priority 2016, dated 2022)
Where “and” joins values, the source holds several entries; their conditions need not be identical. Equal entries are not always repeated.

What was measured:
[1] = system: patients with cystic fibrosis; settings: cited from earlier work
[2] = Enbrel stability after aerosol generation, size exclusion chromatography; assay type: physicochemical; settings: for Peak Area %, Peak 1 / Peak Area %, Peak 2 / Peak Area %, Peak 4 / Peak Area %, Peak 5: SEC UV 280 nm
From the text: Alternately, to determine the stability of active agent after droplet generation, the generated stream of droplets including the active agent may be collected and […] may be employed to monitor for any changes in large molecule aggregation and protein fragment content. Soluble protein aggregates and protein fragment content may be calculated by comparing respective peak area under the SEC-HPLC curve of dispensed protein solutions with controls (solutions remaining in the device reservoir). Drug solutions for testing include Enbrel, (ENBREL® single-use prefilled syringes in 25 mg (0.51 mL of a 50 mg/mL solution of etanercept), and insulin, (Humalog, 200 units/ml, 3 ml […] is performed with a YarraTM 3 um SEC-2000 LC column 300×7.8 mm, SecurityGuard cartridge kit and SecurityGuard cartridges GFC-2000, 4×3 mm ID. Fifty microliters of Enbrel from the syringe (ENBREL® single-use prefilled syringes in 25 mg/0.51 mL of a 50 mg/mL solution of etanercept) is diluted (4:1) (4 parts, 200 mcl of the mobile phase buffer solution to 1 part, 50 mcl Enbrel from syringe). Fifty microliter of the diluted Enbrel is injected and separation was performed at a flow rate of 1.0 ml/min. The mobile phase buffer system included a PHOS. BUFF. SALINE. […] UV detection is performed at 280 nm. […] An ampule/cartridge is filled with either 0.20 ml of Enbrel® (50 mg/ml) diluted 4:1 (10 mg/ml)(4 parts (200 mcl) of PBS and 0.025% NaN3 and 1 part (50 mcl of Enbrel solution from the syringe). After 20 actuations and aerosolization, about 150 mcl of the aerosolized Enbrel solution is recovered and collected in the polypropylene tube located below the ejector mechanism. The control consists of the diluted Enbrel solution, 50 mcl of which is injected into the SEC column for analysis.

[3] = Gravimetric analysis of delivered dose per actuation; assay type: physicochemical; settings: for total delivered dose per actuation: from gravimetric mass and solution concentration; for average mass ejected per dose (actuation), gravimetric: solution filled ampule weighed before and after dosing, average of five doses
Method: Gravimetric analysis was performed by weighing the Enbrel solution filled ampule before and after dosing. The average of five doses (actuations) were analyzed with an average of 4.25 mg+/−0.15 mg. The total delivered dose of Enbrel per actuation is therefore […] per actuation.
Gravimetric analysis was performed by weighing the Insulin solution filled ampule before and after dosing. The average of five doses (actuations) were analyzed with an average of 5.01 mg+/−0.53 mg. The total delivered dose of Insulin per actuation is therefore 34.8 mcg per actuation.

[4] = Gel electrophoresis of active agent after droplet generation; assay type: physicochemical
From the text: Gel Electrophoresis: To determine the stability of active agent after droplet generation, the generated stream of droplets including the active agent is collected and the molecular weight of the active agent is verified using gel electrophoresis.

[5] = Insulin stability after aerosol generation, size exclusion chromatography; assay type: physicochemical
From the text: Alternately, to determine the stability of active agent after droplet generation, the generated stream of droplets including the active agent may be collected and SEC-HPLIC may be employed to monitor for any changes in large molecule aggregation and protein fragment content. Soluble protein aggregates and protein fragment content may be calculated by comparing respective peak area under the SEC-HPLC curve of dispensed protein solutions with controls (solutions remaining in the device reservoir).
Drug solutions for testing include Enbrel, (ENBREL® single-use prefilled syringes in 25 mg (0.51 mL of a 50 mg/mL solution of etanercept), and insulin, (Humalog, 200 units/ml, 3 ml kwikpens)
To calculate and compare effects of droplet generation through an ejector mechanism of the disclosure, the total area under the curve of the UV signal at 280 nm versus elution time for controls is compared with the aerosolized samples, which is set to 100%.
Aerosol collection and SEC is performed in a similar fashion as for the Enbrel analysis and aerosol collection.
Fifty microliters of the collected aerosol spray is injected onto the SEC column for analysis, while 50 mcl of the Kwikpen insulin solution is injected onto the SEC column for control samples.

[6] = average of aerosolized S1 and S2
[7] = control, Enbrel diluted 4:1 (10 mg/ml), not aerosolized

NC[C@H]1O[C@H](O[C@H]2[C@H](O)[C@@H](O[C@H]3O[C@H](CO)[C@@H](O)[C@H](N)[C@H]3O)[C@H](N)C[C@@H]2N)[C@H](N)C[C@@H]1O [tobramycin]
effect on pulmonary function and kidney side effects ([1]; administration by inhalation): significantly improves pulmonary function without severe side effects to kidney functions | toxicity of serum levels ([1]; intravenous administration): toxic to the kidneys

Enbrel
Peak Area %, Peak 1 ([2]; aerosolized with test device, 20 actuations, ret time about 5.3 min): 2.796% and 3.476% | Peak Area %, Peak 2 ([2]; aerosolized with test device, 20 actuations, ret time about 5.8 min): 90.789% and 92.112% | Peak Area %, Peak 4 ([2]; aerosolized with test device, 20 actuations, ret time about 13 min): 0.357% and 0.352% | Peak Area %, Peak 5 ([2]; aerosolized with test device, 20 actuations, ret time about 25 min): 5.130% and 3.428% and 5.123% | Peak Area %, Peak 4, Avg. [2, 6]: 0.3545 | Peak Area %, Peak 5, Avg. [2, 6]: 4.2755 | Peak Area %, Peak 4 [2, 7]: 0% | Peak Area %, Peak 5 [2, 7]: 0% | Peak Area %, Peak 1 ([2]; control, Enbrel diluted 4:1 (10 mg/ml), not aerosolized, ret time 4.3-5.3 min): 2.428% and 3.041% | Peak Area %, Peak 2 ([2]; control, Enbrel diluted 4:1 (10 mg/ml), not aerosolized, ret time 4.8-5.8 min): 96.676% and 95.909% | fraction of the dose forming molecular fragments ([2]; fragments with elution times of 13 and 25 minutes): 4.6% | fraction structurally unchanged after delivering an aerosol dose ([2]; test device, SEC): 95.4% | total delivered dose per actuation [3]: 42.5 µg | average mass ejected per dose (actuation), gravimetric [3]: 4.25 mg | change in electrophoretic mobility (molecular weight) of post-aerosol active agent versus control [4]: negligible change

adalimumab
change in electrophoretic mobility (molecular weight) of post-aerosol active agent versus control [4]: negligible change

Insulin: insulin, Humalog, 200 units/ml, 3 ml kwikpens
Peak Area %, Peak 3, Avg. [5, 6]: 2.4905 | Peak Area %, Peak 3 ([5]; control, Kwikpen insulin solution 200 U/ml, not aerosolized): 0% | fraction of the ejected dose forming a fragment ([5]; fragment eluting at ~25 minutes): 2.5% | fraction of the ejected dose structurally unchanged ([5]; test device, SEC): 97.5% | total delivered dose per actuation [3]: 34.8 µg | average mass ejected per dose (actuation), gravimetric [3]: 5.01 mg

bevacizumab: antibody (Avastin)
change in electrophoretic mobility (molecular weight) of post-aerosol active agent versus control [4]: negligible change
